Laboratory results reported in article doi:10.1101/2021.09.06.458672.

Biological target: plectasin variant D9S Q14K V36L (PPI42)
Assay: dynamic light scattering

mass fraction of medium sized oligomers and protein fibrils: < 2.5 % mass
Substance: plectasin variant D9S Q14K V36L (PPI42) (peptide)
